Measured values: patent US10765739B2, “Use of MIF and MIF pathway agonists” (Yale University, priority 2006, dated 2020)

Columns and labels:
AMPK [1] = assay: AMPK Thr172 phosphorylation (immunoblot densitometry) in isolated heart papillary muscles; format: cell-based, rat; settings: normoxic heart muscles
Procedure: (§1) Briefly, rat heart anterior and posterior left ventricular papillary muscles (3-5 mg) were equilibrated in oxygenated Dulbecco's phosphate-buffered saline (PBS) containing 1 mM MgCl2 […], glucose, and 1% BSA. Unless otherwise noted, 100% oxygen flowed continuously through sealed muscle incubation containers while muscles were kept in an oscillating water bath at 37° C., and experiments began after a 15 minute equilibration period in these conditions. During incubations designed to examine the effects of hypoxia, muscles were transferred to incubation containers gassed with N2 for 30 minutes. In incubations with rMIF (0-800 ng/ml), anti-MIF blocking antibody (100 μg/ml), and/or non-immune rabbit IgG (100 μg/ml); Sigma, USA), these compounds were added for 30-120 minutes. At the end of experiments, muscles were freeze clamped and stored in liquid nitrogen until further analysis, unless otherwise specified.
(§2) Immunoblots were performed according to standard methods known in the art. See, for example, Li et al., Am. J. Physiol Endocrinol Metab 287, E384 (2004) and Baron et al., Circ Res (Jan. 13, 2005). Heart homogenate proteins were combined with Laemmli sample buffer prior to resolution by SDS-PAGE, transferred onto polyvinylidene difluoride membranes, immunoblotted, detected with enhanced chemiluminesence, and quantified by densitometry.

[2] = test system: rat heart left ventricular papillary muscles; assay: 2-deoxy-[1-3H]glucose uptake in isolated heart papillary muscles; format: cell-based; settings: normoxic heart muscles, 0-800 ng/ml for 60 minutes
Procedure: as §1
To further support MIF's role in modulating the AMPK pathway, we added recombinant human MIF (rMIF) to intact normoxic heart muscles. Papillary muscles were isolated as above. […]

GLUT4 = assay: Cell-surface GLUT4 content of papillary muscles by bio-LC-ATB-BGPA photolabel; format: cell-based, rat; settings: 400 ng/ml for 60 minutes
Procedure: as §1, with “At the end of experiments, muscles were freeze clamped and stored in liquid nitrogen until further analysis, unless otherwise specified.” left out
Glucose uptake is primarily mediated by the glucose transporter, GLUT4, and AMPK-stimulation of glucose transport is due to the translocation of GLUT4 vesicles to the cell surface, where GLUT4 is physiologically active (Sun et al., Circulation 89, 793 (1994); Young et al., Circulation 95, 415 (1997)). Thus, we assessed the cell-surface GLUT4 content of heart muscles after incubation with rMIF, utilizing a cell-membrane impermeant biotinylated glucose transporter photolabel (bio-LC-ATB-BGPA). […]

AMPK [3] = assay: Hypoxic AMPK phosphorylation in human dermal fibroblasts by MIF promoter genotype; format: cell-based; settings: 10 ng/ml during 9 hours of hypoxia
Procedure: as §2
To isolate human fibroblasts, human foreskin samples were obtained from the Yale Human Cell Resource Center (Department of Dermatology) in accordance with the Yale Human Investigations Committee. Fibroblasts were cultured in DMEM supplemented with 10% fetal bovine serum (FBS), penicillin (100 IU/ml) and streptomycin (100 μg/ml) at 37° C. Cells were studied at 80% confluence, and on the day prior to experiments, culture media was changed to DMEM with 1% FBS. Early passage fibroblasts were either subjected to 9 hours of hypoxia by incubation in an air-tight chamber gassed with 95% nitrogen/5% CO2 or control incubation in room air.
To confirm that relative MIF deficiency was responsible for impaired hypoxic AMPK activation in the low-expressing 5/5 genotype fibroblasts, we investigated the effect of adding human rMIF (10 ng/ml) to the culture media during hypoxic incubation.

B1: rMIF: recombinant human MIF (macrophage migration inhibitory factor), the preferred MIF agonist (protein, UniProt P14174 2-115, looked up)
Macrophage migration …: PMFIVNTNVPRASVPDGFLSELTQQLAQATGKPPQYIAVHVVPDQLMAFGGSSEPCALCSLHSIGKIGGAQNRSYSKLLCGLLAERLRISPDRVYINYYDMNAANVGWNNSTFA
- AMPK Thr172 phosphorylation (AMPK [1]; 0-400 ng/ml, 0-120 minutes): time- and dose-dependent increase
- maximal AMPK activation (AMPK Thr172 phosphorylation) (AMPK [1]; 400 ng/ml incubated for 60 minutes): 1.5-2.0 fold increase
- glucose uptake [2]: increase
- cell-surface GLUT4 (GLUT4): increased
- hypoxic AMPK signaling (AMPK phosphorylation) (AMPK [3]; 5/5 genotype fibroblasts): rescued
- AMPK phosphorylation (AMPK [3]; hypoxic non-5/5 genotype fibroblasts): no additional effect
